Results reported in article PMC2756588.

T1: Abp1, P15891
T1 sequence (P15891 535-592, looked up): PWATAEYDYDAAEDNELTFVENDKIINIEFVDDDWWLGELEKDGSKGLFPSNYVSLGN

T2: Bbc1, P47068
T2 sequence (P47068 1-78, looked up): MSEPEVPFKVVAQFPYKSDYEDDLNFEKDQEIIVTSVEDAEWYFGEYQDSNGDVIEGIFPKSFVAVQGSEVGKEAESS

T3: Boi1, P38041
T3 sequence (P38041 1-86, looked up): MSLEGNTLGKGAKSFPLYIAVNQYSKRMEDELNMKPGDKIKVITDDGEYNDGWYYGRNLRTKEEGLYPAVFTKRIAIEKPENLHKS

T4: Boi2, P39969
T4 sequence (P39969 32-116, looked up): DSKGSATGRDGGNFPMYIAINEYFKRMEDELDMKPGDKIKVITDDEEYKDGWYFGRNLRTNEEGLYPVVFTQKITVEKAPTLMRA

T5: Bud14, P27637
T5 sequence (P27637 247-328, looked up): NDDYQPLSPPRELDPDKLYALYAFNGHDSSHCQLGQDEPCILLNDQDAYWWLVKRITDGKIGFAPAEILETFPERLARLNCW

T6: Bzz1-1, P38822
T6 sequence (P38822 478-572, looked up): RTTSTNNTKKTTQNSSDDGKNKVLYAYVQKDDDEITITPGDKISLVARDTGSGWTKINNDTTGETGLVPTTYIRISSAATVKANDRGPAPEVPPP

T7: Bzz1-2, P38822
T7 sequence (P38822 568-633, looked up): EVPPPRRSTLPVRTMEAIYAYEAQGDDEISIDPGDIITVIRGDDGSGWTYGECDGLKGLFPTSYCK

T8: Cdc25, P04821
T8 sequence (P04821 50-136, looked up): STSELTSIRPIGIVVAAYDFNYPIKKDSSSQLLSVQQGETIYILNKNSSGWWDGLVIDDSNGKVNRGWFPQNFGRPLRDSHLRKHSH

T9: Cyk3, Q07533
T9 sequence (Q07533 1-83, looked up): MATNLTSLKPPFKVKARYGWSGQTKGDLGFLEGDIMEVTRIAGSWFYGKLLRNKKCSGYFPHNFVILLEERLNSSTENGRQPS

T10: Fus1, P11710
T10 sequence (P11710 432-512, looked up): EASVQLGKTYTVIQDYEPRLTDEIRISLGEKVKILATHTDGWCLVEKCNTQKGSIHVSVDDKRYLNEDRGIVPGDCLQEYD

T11: Hof1, Q05080
T11 sequence (Q05080 590-669, looked up): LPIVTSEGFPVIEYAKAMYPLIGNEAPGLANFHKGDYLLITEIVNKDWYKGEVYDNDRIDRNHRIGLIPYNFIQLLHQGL

T12: Hse1, P38753
T12 sequence (P38753 208-285, looked up): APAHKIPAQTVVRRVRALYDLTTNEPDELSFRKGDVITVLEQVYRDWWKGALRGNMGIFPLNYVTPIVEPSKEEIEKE

T13: Lsb1, P53281
T13 sequence (P53281 45-122, looked up): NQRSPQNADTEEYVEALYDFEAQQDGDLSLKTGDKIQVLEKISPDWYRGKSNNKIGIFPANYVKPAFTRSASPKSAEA

T14: Lsb3, P43603
T14 sequence (P43603 385-451, looked up): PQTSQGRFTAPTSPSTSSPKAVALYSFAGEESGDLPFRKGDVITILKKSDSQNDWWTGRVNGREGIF

T15: Lsb4, P32793
T15 sequence (P32793 402-468, looked up): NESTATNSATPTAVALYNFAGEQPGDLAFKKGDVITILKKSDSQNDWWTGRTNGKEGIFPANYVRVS

T16: Myo5, Q04439
T16 sequence (Q04439 1072-1160, looked up): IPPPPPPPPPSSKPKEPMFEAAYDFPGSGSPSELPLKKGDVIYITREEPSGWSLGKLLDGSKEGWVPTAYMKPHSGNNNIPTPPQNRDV

T17: Nbp2, Q12163
T17 sequence (Q12163 103-180, looked up): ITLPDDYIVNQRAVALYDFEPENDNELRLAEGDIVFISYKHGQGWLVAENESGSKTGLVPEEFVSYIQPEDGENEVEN

T18: Pex13, P80667
T18 sequence (P80667 295-386, looked up): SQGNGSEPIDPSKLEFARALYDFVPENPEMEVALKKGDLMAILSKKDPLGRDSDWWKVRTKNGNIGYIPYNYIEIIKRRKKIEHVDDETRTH

T19: Pin3, Q06449
T19 sequence (Q06449 53-122, looked up): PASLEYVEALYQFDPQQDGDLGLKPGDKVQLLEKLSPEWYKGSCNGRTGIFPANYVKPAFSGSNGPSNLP

T20: Sla1-2, P32790
T20 sequence (P32790 60-140, looked up): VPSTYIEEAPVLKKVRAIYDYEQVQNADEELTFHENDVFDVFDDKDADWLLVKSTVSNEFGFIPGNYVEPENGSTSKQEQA

T21: Sla1-3, P32790
T21 sequence (P32790 344-424, looked up): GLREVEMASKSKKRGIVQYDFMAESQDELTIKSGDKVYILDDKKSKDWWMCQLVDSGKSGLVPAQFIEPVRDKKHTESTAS


How the values were obtained:
Assay in all cases: SPOT array
Abp1, P15891 = molecular target: T1, Abp1, P15891; conditions: median of control spots 935
Bbc1, P47068 = molecular target: T2, Bbc1, P47068; conditions: median of control spots 796
Bem1-1, P29366 = conditions: median of control spots 4282
Chain of Bem1-1, P29366 (P29366 55-141): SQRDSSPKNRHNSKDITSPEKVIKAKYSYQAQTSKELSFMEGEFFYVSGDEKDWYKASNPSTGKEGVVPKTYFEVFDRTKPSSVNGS

Bem1-2, P29366 = conditions: median of control spots 4347
Chain of Bem1-2, P29366 (P29366 139-227): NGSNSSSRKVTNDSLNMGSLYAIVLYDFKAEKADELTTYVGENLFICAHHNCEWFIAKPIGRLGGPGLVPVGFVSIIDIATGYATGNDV

Boi1, P38041 = molecular target: T3, Boi1, P38041; conditions: median of control spots 1162
Boi2, P39969 = molecular target: T4, Boi2, P39969; conditions: median of control spots 1161
Bud14, P27637 = molecular target: T5, Bud14, P27637; conditions: median of control spots 956
Bzz1-1, P38822 = molecular target: T6, Bzz1-1, P38822; conditions: median of control spots 4446
Bzz1-2, P38822 = molecular target: T7, Bzz1-2, P38822; conditions: median of control spots 4538
Cdc25, P04821 = molecular target: T8, Cdc25, P04821; conditions: median of control spots 969
Cyk3, Q07533 = molecular target: T9, Cyk3, Q07533; conditions: median of control spots 1451
Fus1, P11710 = molecular target: T10, Fus1, P11710; conditions: median of control spots 1200
GST = conditions: median of control spots 978
Hof1, Q05080 = molecular target: T11, Hof1, Q05080; conditions: median of control spots 4086
Hse1, P38753 = molecular target: T12, Hse1, P38753; conditions: median of control spots 1727
Lsb1, P53281 = molecular target: T13, Lsb1, P53281; conditions: median of control spots 388
Lsb3, P43603 = molecular target: T14, Lsb3, P43603; conditions: median of control spots 406
Lsb4, P32793 = molecular target: T15, Lsb4, P32793; conditions: median of control spots 397
Myo3, P36006 = conditions: median of control spots 468
Myo5, Q04439 = molecular target: T16, Myo5, Q04439; conditions: median of control spots 471
Nbp2, Q12163 = molecular target: T17, Nbp2, Q12163; conditions: median of control spots 357
Pex13, P80667 = molecular target: T18, Pex13, P80667; conditions: median of control spots 1341
Pin3, Q06449 = molecular target: T19, Pin3, Q06449; conditions: median of control spots 2171
Rvs167, P39743 = conditions: median of control spots 2707
Chain of Rvs167, P39743 (P39743 419-482): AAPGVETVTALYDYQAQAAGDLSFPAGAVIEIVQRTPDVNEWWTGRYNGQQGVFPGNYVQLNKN

Sho1, P40073 = conditions: median of control spots 1148
Chain of Sho1, P40073 (P40073 287-367): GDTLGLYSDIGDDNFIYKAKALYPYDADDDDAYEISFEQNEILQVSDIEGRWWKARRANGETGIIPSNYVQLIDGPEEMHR

Sla1-2, P32790 = molecular target: T20, Sla1-2, P32790; conditions: median of control spots 712
Sla1-3, P32790 = molecular target: T21, Sla1-3, P32790; conditions: median of control spots 5475

Row | Binder | SPOT intensity (Abp1, P15891) | SPOT intensity (Bbc1, P47068) | SPOT intensity (Bem1-1, P29366) | SPOT intensity (Bem1-2, P29366) | SPOT intensity (Boi1, P38041) | SPOT intensity (Boi2, P39969) | SPOT intensity (Bud14, P27637) | SPOT intensity (Bzz1-1, P38822) | SPOT intensity (Bzz1-2, P38822) | SPOT intensity (Cdc25, P04821) | SPOT intensity (Cyk3, Q07533) | SPOT intensity (Fus1, P11710) | SPOT intensity (GST) | SPOT intensity (Hof1, Q05080) | SPOT intensity (Hse1, P38753) | SPOT intensity (Lsb1, P53281) | SPOT intensity (Lsb3, P43603) | SPOT intensity (Lsb4, P32793) | SPOT intensity (Myo3, P36006) | SPOT intensity (Myo5, Q04439) | other results
1 | FSRRQSMDIPSKNRN | 127 | 7 | 7 | 0 | 0 | 1 | 6 | 1 | 26 | 16 | 0 | 0 | 1 | 0 | 8 | 200 | 22 | 84 | 44 | 83 | SPOT intensity (Nbp2, Q12163): 2; SPOT intensity (Pex13, P80667): 61; SPOT intensity (Pin3, Q06449): 195; SPOT intensity (Rvs167, P39743): 0; SPOT intensity (Sho1, P40073): 60; SPOT intensity (Sla1-2, P32790): 27; SPOT intensity (Sla1-3, P32790): 1
2 | TYNRTAFQIPGDQSI | 0 | 0 | 0 | 0 | 1 | 0 | 0 | 2 | 0 | 0 | 0 | 0 | 0 | 0 | 0 | 705 | 0 | 0 | 0 | 1 | SPOT intensity (Nbp2, Q12163): 0; SPOT intensity (Pex13, P80667): 0; SPOT intensity (Pin3, Q06449): 45; SPOT intensity (Rvs167, P39743): 0; SPOT intensity (Sho1, P40073): 0; SPOT intensity (Sla1-2, P32790): 0; SPOT intensity (Sla1-3, P32790): 1
3 | DGNEEKPLLPTRPNK | 0 | 43 | 0 | 0 | 0 | 0 | 0 | 0 | 0 | 0 | 0 | 0 | 0 | 23 | 1 | 174 | 493 | 281 | 0 | 0 | SPOT intensity (Nbp2, Q12163): 0; SPOT intensity (Pex13, P80667): 81; SPOT intensity (Pin3, Q06449): 0; SPOT intensity (Rvs167, P39743): 263; SPOT intensity (Sho1, P40073): 0; SPOT intensity (Sla1-2, P32790): 0; SPOT intensity (Sla1-3, P32790): 5
4 | NMLSRPRLAKLPSIR | 42 | 54 | 0 | 18 | 5 | 2 | 33 | 0 | 11 | 108 | 1 | 12 | 0 | 178 | 216 | 59 | 2 | 10 | 9 | 11 | SPOT intensity (Nbp2, Q12163): 0; SPOT intensity (Pex13, P80667): 21; SPOT intensity (Pin3, Q06449): 40; SPOT intensity (Rvs167, P39743): 0; SPOT intensity (Sho1, P40073): 38; SPOT intensity (Sla1-2, P32790): 1; SPOT intensity (Sla1-3, P32790): 25
5 | NILKRRPLKLEAPSK | 92 | 272 | 0 | 0 | 7 | 3 | 19 | 2 | 18 | 297 | 4 | 37 | 0 | 14 | 302 | 2 | 0 | 1 | 4 | 0 | SPOT intensity (Nbp2, Q12163): 0; SPOT intensity (Pex13, P80667): 2; SPOT intensity (Pin3, Q06449): 1; SPOT intensity (Rvs167, P39743): 0; SPOT intensity (Sho1, P40073): 65; SPOT intensity (Sla1-2, P32790): 0; SPOT intensity (Sla1-3, P32790): 28
6 | NNNKMRPHLPPLSSG | 59 | 0 | 1 | 16 | 3 | 0 | 35 | 1 | 62 | 22 | 0 | 1 | 0 | 1460 | 24 | 81 | 1 | 22 | 18 | 7 | SPOT intensity (Nbp2, Q12163): 12; SPOT intensity (Pex13, P80667): 84; SPOT intensity (Pin3, Q06449): 85; SPOT intensity (Rvs167, P39743): 0; SPOT intensity (Sho1, P40073): 61; SPOT intensity (Sla1-2, P32790): 0; SPOT intensity (Sla1-3, P32790): 0
